Data from publication PMC4554727, “Flexible Structure of Peptide-Bound Filamin A Mechanosensor Domain Pair 20–21” (PLoS ONE, 2015).

How the values were obtained:
[1] = target: T1, IgFLNa20–21 (filamin A immunoglobulin-like domains 20–21, residues 2141–2329) (Homo sapiens (Human), UniProt P21333); test: SAXS
T1 chain: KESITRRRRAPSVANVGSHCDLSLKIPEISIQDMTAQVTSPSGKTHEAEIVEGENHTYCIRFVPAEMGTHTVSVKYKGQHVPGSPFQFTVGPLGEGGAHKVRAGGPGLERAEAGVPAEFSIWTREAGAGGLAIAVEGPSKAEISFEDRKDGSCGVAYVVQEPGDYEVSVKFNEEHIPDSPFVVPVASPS

[2] = target: T2, IgFLNaΔA20–21 (filamin A domains 20–21 lacking the first β strand of domain 20, residues 2151–2329) (Homo sapiens (Human), UniProt P21333); test: NMR HSQC titration, crystal structure
T2 chain: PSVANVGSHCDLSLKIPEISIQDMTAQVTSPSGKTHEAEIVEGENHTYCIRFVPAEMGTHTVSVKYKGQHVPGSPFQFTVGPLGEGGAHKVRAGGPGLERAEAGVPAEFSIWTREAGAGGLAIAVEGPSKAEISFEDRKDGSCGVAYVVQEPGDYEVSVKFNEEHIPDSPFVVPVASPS

[3] = target: T3, IgFLNaΔA20–21 (filamin A domains 20–21 lacking the first β strand of domain 20, residues 2151–2329) (UniProt P21333 2151-2329); test: SAXS; 277 K; 20 mM Tris pH 8.0, 100 mM NaCl, 10 mM DTT; 1–4 mg/ml IgFLNa20–21 or IgFLNa∆A20–21; two times molar excess of migfilin peptide where added; conditions: both partners purified
T3 construct: filamin A (FLNa), Ig-like domains 20–21 without the A strand of domain 20 (2141–2150), residues 2151–2329; residues 2151–2235 form domain ΔA20 and 2236–2329 domain 21; 15N (and 13C) isotope-labelled for the NMR experiments; same construct; also called IgFLNa∆A20–21; IgFLNΔAa20–21; source: E. coli BL21, purified (Glutathione Sepharose, TEV cleavage, size-exclusion chromatography)
T3 sequence (looked up): T2 chain

[4] = target: T4, IgFLNa20–21 (filamin A immunoglobulin-like domains 20–21, residues 2141–2329) (UniProt P21333 2141-2329); test: as above; conditions: both partners purified
T4 construct: Cloned into a modified pGEX vector; also called FLNa mechanosensor domain pair 20–21; source: E. coli BL21, purified (Glutathione Sepharose, TEV cleavage, size-exclusion chromatography)
T4 sequence (looked up): T1 chain

Measured: binding result

B1: migfilin peptide (residues 5–28) (peptide)
peptide: PEKRVASSVFITLAPPRRDVAVAE
notes: migfilin, residues 5–28; it is removed here; Only residues 6–20 are seen in the crystal structure; also called migfilin^5–28 peptide; migfilin-derived peptide; source: bought: EZBiolab (Westfield, IN)
binds: [1] | [2] | [3] | [4]
